Assay results published in publication PMC6020246, “Molecular characterization of a novel chitinase CmChi1 from Chitinolyticbacter meiyuanensis SYBC-H1 and its use in N-acetyl-D-glucosamine production” (Biotechnology for Biofuels, 2018).

System: T1, CC(=O)N[C@H]1[C@H](Oc2ccc([N+](=O)[O-])cc2)O[C@H](CO)[C@@H](O[C@@H]2O[C@H](CO)[C@@H](O)[C@H](O)[C@H]2NC(C)=O)[C@@H]1O
T1 construct: full length 658 residues with predicted signal peptide (residue 23) kept, C-terminal His6 (pET-28a(+)), E. coli BL21(DE3); peptides AATPTPVSAT, EDYKVLKNA, LTFINYAFGNVYQK
Assay: p-nitrophenol release, Lineweaver-Burk plot
Type: biochemical, Chitinolyticbacter meiyuanensis
Details: 50 mM sodium citrate pH 5.2, 50 °C, 5 min, apparent, text b64 prints the same number as mg/mL, table unit agrees with printed kcat/Km 73.5 mL/s/μmol
From the text: p-nitrophenol release, Lineweaver-Burk plot on CmChi1

Sequence of CmChi1 (Chitinolyticbacter meiyuanensis) (chain, as listed by the source): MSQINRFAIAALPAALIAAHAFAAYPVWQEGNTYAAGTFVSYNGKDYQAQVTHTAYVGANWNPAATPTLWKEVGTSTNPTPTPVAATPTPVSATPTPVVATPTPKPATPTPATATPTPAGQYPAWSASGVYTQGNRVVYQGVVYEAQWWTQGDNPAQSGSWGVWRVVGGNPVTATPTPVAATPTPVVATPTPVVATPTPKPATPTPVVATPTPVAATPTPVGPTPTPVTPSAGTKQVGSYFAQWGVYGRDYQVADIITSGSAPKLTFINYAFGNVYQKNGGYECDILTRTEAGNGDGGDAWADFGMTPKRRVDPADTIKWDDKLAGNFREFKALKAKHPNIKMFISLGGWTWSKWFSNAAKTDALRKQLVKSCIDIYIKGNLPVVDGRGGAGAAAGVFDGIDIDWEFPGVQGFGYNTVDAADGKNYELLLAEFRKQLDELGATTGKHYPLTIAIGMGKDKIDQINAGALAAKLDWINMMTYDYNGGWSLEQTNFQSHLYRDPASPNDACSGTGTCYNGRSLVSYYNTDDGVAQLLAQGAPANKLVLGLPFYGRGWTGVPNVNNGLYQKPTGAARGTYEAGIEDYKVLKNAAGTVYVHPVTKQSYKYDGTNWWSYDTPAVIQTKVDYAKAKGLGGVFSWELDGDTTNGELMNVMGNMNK

Q: “CmChi1 (Chitinolyticbacter meiyuanensis)” was tested. Which Km did it give?
A: Its Km is 580 ± 40 µM.

Q: What about the Vmax of the same substance?
A: The Vmax was 108.6 ± 3.3 (μmol/min/L).

Q: And the kcat?
A: Its kcat is 42.5 ± 1.4 s⁻¹.

Q: What about the kcat/Km of the same substance?
A: Its kcat/Km is 73.5 ± 2.6 (mL/s/μmol).
